In IntAct's records for PubMed 24140345:

B1: Serine/threonine-protein kinase RIM15 (Saccharomyces cerevisiae), P43565 (parent)
chain: MFNRSNTAGGSQAMKEGLGINKLSPISSNSNPSSLTSSNYEKYLQLATEKNPCMILELELDGKVRYGSPQWNTITGVADDSGSSPTYIADLILGSDQDKGVFQKATDMLLMNDDTSCTITFKIKAADYEGSAGCDDESTITTLEARGILIRDGHTQLPSHTMWIVKPRTNDWSDFYANEDAQDDMVIQLSDNCDDIDIQLPEEFAKTLGFGAKIFVQYLKRIRLEMIIDEFNLPLPKMELCRVCENFVPVWWLETHSQSCVCEHRTESLIQLLHDNLLEQQAILANFTKDSEYKGSQIQVRSNNFLNQVLDSLRELCQDAIDINPSEMVPDLYHSLSTFPQDNGNNNNNNNNNNNNNNALLDQFPIQKDTVSLNSYFQFSPRTNHNIQNVTSWQSRFFLNDDQDPGLALLIHDTLDLARKKVDAVLRLDNAMTYSLKIKNEVNNYVVQLIREQIEINKHAILTHPMNLRSSSIFHSPLPQIHSQQPEAENLIYSSSTPLQVQHDQCASFEAPSKSHLEPIPFPVSSIEETPTANDIRHPSPLPRSCSNTVMKLPTPRRKLDSNGLFSDAYLNADIIPNPSIESTISIDRDNNTNSRGSSMKQYGIGEATDSRTSNSERPSSSSSRLGIRSRSITPRQKIEYSHVDNDDRTNEMLSRDKDSLQPQPSVDTTITSSTQATTTGTKTNSNNSTNSVLPKLMTSISLTPRRGSPSFGNLASHSMQQTNSFKLIHDKSPISSPFTFSKDFLTPEQHPSNIARTDSINNAMLTSPNMPLSPLLLATNQTVKSPTPSIKDYDILKPISKGAYGSVYLARKKLTGDYFAIKVLRKSDMIAKNQVTNVKSERAIMMVQSDKPYVARLFASFQNKDNLFLVMEYLPGGDLATLIKMMGYLPDQWAKQYLTEIVVGVNDMHQNGIIHHDLKPENLLIDNAGHVKLTDFGLSRAGLIRRHKFVPHKSSLSISSTLPIDNPANNFTMNNNNSNHSQLSTPDSFTSDHKQYNRSKKSSLGQQYEHSEYSSTSNSHSMTPTPSTNTVVYPSYYRGKDRSHGSSNIDLPASLRRSESQLSFSLLDISRSSTPPLANPTNSNANNIMRRKSLTENKSFSNDLLSSDAIAATNTNINSNNNISLSPAPSDLALFYPDDSKQNKKFFGTPDYLAPETIEGKGEDNKQCDWWSVGCIFFELLLGYPPFHAETPDAVFKKILSGVIQWPEFKNEEEEREFLTPEAKDLIEKLLVVDPAKRLGAKGIQEIKDHPYFKNVDWDHVYDEEASFVPTIDNPEDTDYFDLRGAELQDFGDDIENDNANILFGKHGINTDVSELSAANLSPPLNHKNILSRKLSMSNTTNRSSNNSNSSVHDFGAHTPVNKLSIASVLESVPQETGYITPNGTGTTTTSAKNSPNLKNLSLAIPPHMRDRRSSKLNDSQTEFGSFNFRNLSALDKANKDAINRLKSEHFSEQPGVHRRTSSASLMGSSSDGSVSTPGSNASNTTSGGKLKIHKPTISGSPSTFGTFPKTFLRSDSFSTRSYSPERSISIDSSTLSRKGSIIGDNQQTTANSSDSPTMTKFKSPLSPANTTTVSSYFSRQRVLSKSFSQRTNSSDLSAEESDRLQAISRVNSLRNRRRSGRKSSSTSEIGYHMDVLVCEPIPIHRYRVTKDLENLGCTVVSVGAGDELVSRATSGVSFDLIMTALKLPKLGAIDIVQLLKQTNGANSTTPIVAITNYFQEAATSRVFDDVLEKPVKLDELKKLVAKYALKKSQEDEEHTILSDSDETH
B2: Serine/threonine-protein kinase RIM15 (Saccharomyces cerevisiae), P43565 (parent)
chain: B1 chain
partner: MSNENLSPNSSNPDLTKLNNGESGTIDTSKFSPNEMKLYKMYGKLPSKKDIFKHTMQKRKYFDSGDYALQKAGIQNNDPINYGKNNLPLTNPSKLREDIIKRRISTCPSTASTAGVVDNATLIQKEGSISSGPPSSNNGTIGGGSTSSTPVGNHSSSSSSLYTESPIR
B3: Serine/threonine-protein kinase RIM15 (Saccharomyces cerevisiae), P43565 (parent)
chain: B1 chain
partner: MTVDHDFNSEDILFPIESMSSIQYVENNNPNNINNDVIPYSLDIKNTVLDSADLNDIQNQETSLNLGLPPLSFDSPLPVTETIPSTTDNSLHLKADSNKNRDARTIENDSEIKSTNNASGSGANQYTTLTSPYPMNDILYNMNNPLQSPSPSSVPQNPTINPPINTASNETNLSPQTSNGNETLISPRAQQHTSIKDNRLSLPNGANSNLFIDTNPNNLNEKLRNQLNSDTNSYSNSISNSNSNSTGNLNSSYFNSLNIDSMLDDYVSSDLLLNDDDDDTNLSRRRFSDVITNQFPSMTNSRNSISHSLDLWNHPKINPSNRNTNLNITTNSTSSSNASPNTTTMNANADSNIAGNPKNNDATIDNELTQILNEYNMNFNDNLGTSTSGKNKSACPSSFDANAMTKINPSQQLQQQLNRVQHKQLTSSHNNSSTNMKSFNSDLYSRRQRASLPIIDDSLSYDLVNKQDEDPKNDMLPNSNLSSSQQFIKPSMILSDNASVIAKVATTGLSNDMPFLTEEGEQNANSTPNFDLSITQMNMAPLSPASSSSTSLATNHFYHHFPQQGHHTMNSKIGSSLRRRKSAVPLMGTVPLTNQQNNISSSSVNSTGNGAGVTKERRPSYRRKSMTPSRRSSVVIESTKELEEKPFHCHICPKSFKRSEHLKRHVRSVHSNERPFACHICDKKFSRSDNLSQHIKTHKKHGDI

Variants of: B1
Conditions: with hsf_yeast HSF1, P10961
Chain of hsf_yeast HSF1, P10961 (P10961 whole entry): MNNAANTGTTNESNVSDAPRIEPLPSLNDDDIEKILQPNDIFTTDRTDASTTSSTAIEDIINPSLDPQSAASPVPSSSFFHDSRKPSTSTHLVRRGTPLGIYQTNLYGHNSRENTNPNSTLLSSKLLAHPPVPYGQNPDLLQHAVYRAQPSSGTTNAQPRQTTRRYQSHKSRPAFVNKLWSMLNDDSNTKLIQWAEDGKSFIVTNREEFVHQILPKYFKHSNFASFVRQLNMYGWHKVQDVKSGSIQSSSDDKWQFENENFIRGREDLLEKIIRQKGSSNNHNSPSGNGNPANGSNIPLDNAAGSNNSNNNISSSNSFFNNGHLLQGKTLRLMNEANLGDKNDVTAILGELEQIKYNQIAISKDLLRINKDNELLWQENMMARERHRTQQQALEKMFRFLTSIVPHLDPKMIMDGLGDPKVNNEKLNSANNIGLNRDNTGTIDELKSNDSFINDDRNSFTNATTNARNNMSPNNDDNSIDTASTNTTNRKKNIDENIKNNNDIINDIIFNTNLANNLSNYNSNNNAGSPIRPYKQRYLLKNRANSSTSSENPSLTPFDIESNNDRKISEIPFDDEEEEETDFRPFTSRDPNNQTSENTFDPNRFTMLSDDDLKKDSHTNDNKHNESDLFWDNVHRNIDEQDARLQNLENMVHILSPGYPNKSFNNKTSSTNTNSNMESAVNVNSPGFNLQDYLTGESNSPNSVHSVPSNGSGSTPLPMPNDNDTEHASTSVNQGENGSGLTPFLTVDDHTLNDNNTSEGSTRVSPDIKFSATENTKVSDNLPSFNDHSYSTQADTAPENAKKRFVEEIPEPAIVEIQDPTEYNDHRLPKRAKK

| Variant | effect of a mutation on the interaction |
| --- | --- |
| K823Y;C1176Y | disrupting interaction |

Variants of: B2
Conditions: with igo1_yeast IGO1, P53897

| Variant | effect of a mutation on the interaction |
| --- | --- |
| K823Y;C1176Y | disrupting interaction |

Variants of: B3
Conditions: with msn2_yeast MSN2, P33748

| Variant | effect of a mutation on the interaction |
| --- | --- |
| K823Y;C1176Y | disrupting interaction |
